Assay results: patent US8461305B2, “L-fucose α1→6 specific lectin” (J-Oil Mills, Inc., priority 2008, dated 2013)

Test: frontal affinity chromatography (FAC), association constant to PA sugar chains without L-fucose
Assay type: binding
Settings: 25 degrees C.
How it was run: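 Lectin coupled via primary amines to NHS-activated sepharose in a miniature column, run in TBS (pH 7.4) at 0.125 ml/min and 25 degrees C. PA sugar chains (3.75 nM or 7.5 nM) applied in excess, with elution monitored by fluorescence (ex 310/em 380 nm). Ka calculated from front-end delay (V−Vo) versus PA rhamnose and effective ligand amount (Bt).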

[1] = Sugar chain No. 728 (as listed in Table 7)

Measured: association constant Ka

B1: Lens culinaris agglutinin (protein)
chain 1: TETTSFSITKFSPDQKNLIFQGDGYTTKGKLTLTKAVKSTVGRALYSTPIHIWDRDTGNVANFVTSFTFVIDAPSSYNVADEFTFFIAPVDTKPQTGGGYLGVFNSKEYDKTSQTVAVEFDTFYNAAWDPSNKERHIGIDVNSIKSVNTKSWNLQNGERANVVIAFNAATNVLTVTLTYP
chain 2: VTSYTLNEVVPLKDVVPEWVRIGFSATTGAEFAAHEVHSWSFHSELGGTSSS
<1000 M⁻¹: Sugar chain No. 001 | Sugar chain No. 002 | Sugar chain No. 004 | Sugar chain No. 005 | Sugar chain No. 007 | Sugar chain No. 101 | Sugar chain No. 103 | Sugar chain No. 104 | Sugar chain No. 105 | Sugar chain No. 107 | Sugar chain No. 108 | Sugar chain No. 301 | Sugar chain No. 304 | Sugar chain No. 305 | Sugar chain No. 307 | Sugar chain No. 308 | Sugar chain No. 313 | Sugar chain No. 314 | Sugar chain No. 323 | Sugar chain No. 501 | Sugar chain No. 502 | Sugar chain No. 503 | Sugar chain No. 504 | Sugar chain No. 701 | Sugar chain No. 702 | Sugar chain No. 703 | Sugar chain No. 704 | Sugar chain No. 705 | Sugar chain No. 706 | Sugar chain No. 707 | Sugar chain No. 708 | Sugar chain No. 709 | Sugar chain No. 710 | Sugar chain No. 711 | Sugar chain No. 712 | Sugar chain No. 713 | Sugar chain No. 715 | Sugar chain No. 716 | Sugar chain No. 717 | Sugar chain No. 724 | Sugar chain No. 725 | [1] | Sugar chain No. 732 | Sugar chain No. 733 | Sugar chain No. 734 | Sugar chain No. 735 | Sugar chain No. 736 | Sugar chain No. 737 | Sugar chain No. 738 | Sugar chain No. 901 | Sugar chain No. 902 | Sugar chain No. 903 | Sugar chain No. 905 | Sugar chain No. 906 | Sugar chain No. 907
18000 M⁻¹: Sugar chain No. 008 | Sugar chain No. 009
13000 M⁻¹: Sugar chain No. 010
17000 M⁻¹: Sugar chain No. 013 | Sugar chain No. 014
7200 M⁻¹: Sugar chain No. 003
25000 M⁻¹: Sugar chain No. 012
14000 M⁻¹: Sugar chain No. 006 | Sugar chain No. 011

B2: Pisum sativum agglutinin (protein)
chain: TETTSFLITKFSPDQQNLIFQGDGYTTKEKLTLTKAVKNTVGRALYSSPIHIWDRETGNVANFVTSFTFVINAPNSYNVADGFTFFIAPVDTKPQTGGGYLGVFNSAEYDKTTQTVAVEFDTFYNAAWDPSNRDRHIGIDVNSIKSVNTKSWKLQNGEEANVVIAFNAATNVLTVSLTYPNSLEEENVTSYTLSDVVSLKDVVPEWVRIGFSATTGAEYAAHEVLSWSFHSELSGTSSSKQAADA
10000 M⁻¹: Sugar chain No. 008
7800 M⁻¹: Sugar chain No. 003 | Sugar chain No. 007
7100 M⁻¹: Sugar chain No. 006
8600 M⁻¹: Sugar chain No. 014
<1000 M⁻¹: Sugar chain No. 001 | Sugar chain No. 002 | Sugar chain No. 004 | Sugar chain No. 010 | Sugar chain No. 011 | Sugar chain No. 013 | Sugar chain No. 101 | Sugar chain No. 103 | Sugar chain No. 104 | Sugar chain No. 105 | Sugar chain No. 107 | Sugar chain No. 108 | Sugar chain No. 301 | Sugar chain No. 304 | Sugar chain No. 305 | Sugar chain No. 308 | Sugar chain No. 313 | Sugar chain No. 314 | Sugar chain No. 323 | Sugar chain No. 501 | Sugar chain No. 502 | Sugar chain No. 503 | Sugar chain No. 504 | Sugar chain No. 701 | Sugar chain No. 702 | Sugar chain No. 703 | Sugar chain No. 704 | Sugar chain No. 705 | Sugar chain No. 706 | Sugar chain No. 707 | Sugar chain No. 708 | Sugar chain No. 709 | Sugar chain No. 710 | Sugar chain No. 711 | Sugar chain No. 712 | Sugar chain No. 713 | Sugar chain No. 715 | Sugar chain No. 716 | Sugar chain No. 717 | Sugar chain No. 724 | Sugar chain No. 725 | [1] | Sugar chain No. 732 | Sugar chain No. 733 | Sugar chain No. 734 | Sugar chain No. 735 | Sugar chain No. 736 | Sugar chain No. 737 | Sugar chain No. 738 | Sugar chain No. 901 | Sugar chain No. 902 | Sugar chain No. 903 | Sugar chain No. 905 | Sugar chain No. 906 | Sugar chain No. 907
7900 M⁻¹: Sugar chain No. 009
2400 M⁻¹: Sugar chain No. 307
7400 M⁻¹: Sugar chain No. 005
17000 M⁻¹: Sugar chain No. 012
